Assay results from patent US10172951B2, “Dendrimer based nanodevices for therapeutic and imaging purposes” (priority 2009, dated 2019).
“And” between values parts separate entries of the source, which are not always exact repeats. Equal values may be shown once. Numbered stars: 1 amine (or outer) side, 2 acyl side, 3 side chain; on linkers, the order of the positions; unused ones are H or OH. Square brackets hold non-standard residues; d marks the D form. Peptide text beside a SMILES is read from it. γGlu = O=C(O)[C@H](CCC(=O)[*:2])N[*:1]

Columns and labels:
[1] = Transmembrane transport and permeability, chorioamnion; type: in vitro ADME, human
Excerpt: (§1) All human fetal membrane specimens were obtained at the time of cesarean section for obstetrical indications. The fetal membrane comprising chorioamniotic membrane (intact membranous tissue containing both amnion and chorion together) (n=7) and amnion (n=7) and chorion (n=7) were separately procured (size 6×9″). Each membrane was cut into 9 pieces for the 9 sets of diffusion chamber. The fresh membranes were collected immediately after the delivery, washed with PBS to remove the blood and stored in PBS until (˜1 h at 4° C.) it was mounted on the diffusion chamber (37±0.5° C.). Excess membranes were trimmed. The diffusion experiments were performed for 48 hours by mounting the membrane in the chamber to study the transport across the membranes. In all the experiments with chorioamniotic membrane the choriodecidua (maternal side) was placed facing the donor chamber and the amnionic epithelium (fetal side) was facing the receptor chamber. The chorion and amnion were mechanically separated by gently pulling the two membranes apart. For the chorion, the side attached to amnion was placed facing the receptor chamber and for the amnion the side attached to the chorion was placed facing the donor chamber in the diffusion apparatus. For histological evaluation, the tissue samples were collected at 0.5, 1, 2, 3 and 4 hours for and were fixed in 10% formalin overnight. Further, some sections were analyzed by hematoxylin and eosin (H & E) staining. The membrane thickness was measured using the Mitutoyo Super Caliper by placing the respective membranes between the two glass slides and subtracting the thickness of the glass slides without the membrane.
Permeation experiments were carried out using a two-chamber (donor and receptor) side-by-side Permegear diffusion cell with a chamber volume of 3 mL and with a diameter of 13 mm and a diffusional area of 1.32 cm^2. The fetal membranes (chorion and amnion together, amnion and chorion) each (n=9) were mounted between two halves of the donor and receptor cell (9 sets), which were further clamped together and sealed tightly with the rubber packing at the end of each glass chamber. […] The donor cell (volume 3 mL) was filled with solution of compounds whose permeability was evaluated. […] The concentration of compound in the receptor medium was determined using a Molecular Devices SpectroMax M2, UV visible and Fluorescent plate reader at ex 495/em 521. The cumulative amount of compound transported across the membrane in the receptor cell was determined using a calibration curve (a transport of 50% corresponds equilibrium achieved). […]
(§2) [formula] […] The thickness of the chorioamnion, chorion and amnion was 0.22 mm, 0.16 mm and 0.05 mm respectively (n=7), as measured with the help of Mitutoyo Super Caliper. […]

[2] = Transmembrane transport and permeability, amnion; type: in vitro ADME, human
Excerpt: as §1
(§3) Permeation experiments were carried out using a two-chamber (donor and receptor) side-by-side Permegear diffusion cell with a chamber volume of 3 mL and with a diameter of 13 mm and a diffusional area of 1.32 cm^2. The fetal membranes (chorion and amnion together, amnion and chorion) each (n=9) were mounted between two halves of the donor and receptor cell (9 sets), which were further clamped together and sealed tightly with the rubber packing at the end of each glass chamber. The receptor cell (volume 3 mL) was filled with sterile PBS (pH 7.4). The donor cell (volume 3 mL) was filled with solution of compounds whose permeability was evaluated. […] The system was maintained at 37° C. by using a circulating water bath and a jacket surrounding each cell. The donor and receiving medium was continuously stirred (600 rpm) with a magnetic bar to avoid stagnant aqueous diffusion layer effects. Aliquots (200 μL) were collected from the receptor cell every 30 min till first 6 hours and at predetermined intervals thereafter and replaced with equal volume of PBS to maintain sink conditions throughout the study. […] The concentration of compound in the receptor medium was determined using a Molecular Devices SpectroMax M2, UV visible and Fluorescent plate reader at ex 495/em 521. The cumulative amount of compound transported across the membrane in the receptor cell was determined using a calibration curve (a transport of 50% corresponds equilibrium achieved). All the experiments were conducted in dark room. All experiments were done in triplicate and the results are reported as mean±STDev.
[formula] To determine the permeability coefficient, P, a plot of −V/2A ln (1−2Ct/C0) against t was constructed and linear fitting was performed. The slope of the linear portion of the graph yields a permeability coefficient. The thickness of the chorioamnion, chorion and amnion was 0.22 mm, 0.16 mm and 0.05 mm respectively (n=7), as measured with the help of Mitutoyo Super Caliper. […] The FIGS. 93A-C and FIG. 94 show the plots used for calculation of the permeability and the correlation in all the cases ranged from 0.96 to 0.99.

[3] = Transmembrane transport and permeability, chorion; type: in vitro ADME, human
Excerpt: as §1, §3, §2

[4] = Stability of fluorophore-dendrimer conjugates in PBS (HPLC); type: physicochemical; conditions: PBS (pH 7.4), after 72 hours
Excerpt: The FITC-labeled compound (G4-PAMAM-O-GABA-NH-FITC) was purified by dialysis (membrane cutoff 1000 Da) against DMSO in dark by replacing DMSO, to remove un-reacted compounds. Purity of G4-PAMAM-O-GABA-NH-FITC conjugate was confirmed by HPLC using fluorescent detector (λex=495 nm/λem=521 nm).
G4-PAMAM-O-GABA-NH2 dendrimer was reacted with the Alexa 488 carboxylic acid succinimidyl ester (Scheme-6). The N-succinimidyl activated ester of Alexa 488 couples to the terminal primary amines to yield amide-linked G4-PAMAM-O-GABA-Alexa conjugate. The formation of conjugate was confirmed by HPLC (FIG. 89) using florescent detector (λex=495 nm/λem=521 nm). […] The absence of any other peak in chromatogram after dialysis of product confirms the absence of free alexa. […] The dendrimer alexa conjugate was prepared for enhanced histological visualization of samples as confocal imaging causes quenching and also to match with the intensities of other alexa conjugated secondary antibodies.

[5] = Dynamic light scattering size; type: physicochemical; conditions: PBS pH 7.4, 37° C.
Procedure: Dynamic light scattering (DLS) analyses were performed using a Malvern Instruments Zetasizer Nano ZEN3600 instrument (Westborough, Mass.) with reproducibility being verified by collection and comparison of sequential measurements. G4-PAMAM-O-GABA-NH-FITC and G4-PAMAM-O-GABA-NH-Alexa conjugate samples were prepared using PBS pH=7.4. DLS measurements were performed at a 90° scattering angle at 37° C. Z-average sizes of three sequential measurements were collected and analyzed.

Solubility in PBS/H2O = type: physicochemical
[6] = system: neuroinflammation in newborn rabbit model of cerebral palsy; assay: In vivo efficacy in newborn rabbit model of cerebral palsy (maternal endotoxin)
Procedure: New Zealand White rabbits (CoVance Research Products Inc., Kalamazoo, Mich.) with timed pregnancies confirmed with breeders (having a history of delivering 7-11 kits per litter) underwent laparotomy under general anesthesia (2-3% isoflurane by mask) on gestational day 28 (E28, term pregnancy is 31-32 days). 1 mL of saline for the control group (n=6) or 1 mL of saline containing 20 μg/kg of LPS (Escherichia coli serotype O127: B8 from Sigma-Aldrich, St Louis, Mo.) for the endotoxin group (n=6), was equally divided and injected into the uterine wall using a 27 gauge needle between the fetuses taking care not to enter the amniotic sac. This ensured that all the kits were exposed to the same amount of endotoxin. 0.5% NaHCO3 was infused at end of surgery and additional dose NaHCO3 was given at 2 hour after surgery according blood gas.
The following animal groups were enrolled and used for this example: • Group 1: Pups exposed to 20μ/kg E. Coli LPS in utero treated with saline I.V. (200 ul), Observe for 5 days (N=5-7) • Group 2: Pups exposed to 20μ/kg E. Coli LPS in utero treated with NAC I.V. (200 ul), single dose 10 mg/kg. Observe for 5 days (N=5-7) • Group 3: Pups exposed to 20μ/kg E. Coli LPS in utero treated with NAC I.V. (200 ul), single dose 100 mg/kg. Observe for 5 days (N=5-7) • Group 4: Pups exposed to 20μ/kg E. Coli LPS in utero treated with G4-PAMAM-S—S-NAC I.V (200 ul), single dose 1 mg/kg (based on preliminary data). […]
All live postnatal day 1 (PND1) control and endotoxin kits from four consecutive litters in each group were tested to reduce the risk of selection bias. The rabbit kits were assessed and scored for behavioral testing, as described by Derrick et al. Briefly, the kits were videotaped and scored on a scale of 0 (worst) to 3 (best) by two blinded observers for (1) posture (ability to maintain prone posture), (2) righting reflex (ability to right itself from supine to prone position for 10 attempts), (3) activity and locomotion on a flat surface (assessed by grading the quality, intensity, and duration of spontaneous movement of the head and front and back legs), (4) ability to move in a straight line and in circles, (5) coordination of suck and swallow assessed by feeding the rabbit kits artificially with formula from a syringe with a dropper, and (6) ability to move head during feeding (scored from 0-3 in which 0 is no movement of head and 3 is forceful movement of head and body). The tone on passive flexion and extension was assessed using the scoring based on the Ashworth scale, as described by Derrick et al, in which 0 indicated no increase in tone and 4 indicated the limb was rigid in flexion or extension. […]
secondary to maternal endotoxin administration were treated with a single dose of either PBS, NAC 100mg/kg, D-NAC 1 mg/kg or 10mg/kg, or dendrimer alone on day 1of life (31 days post-conception). […] Animals were video-taped for 10 minutes and were scored by two observers in a blinded manner. Scores were based on the maximum number of steps taken without falls (scored from 0-4) and number of hops without falls (scored from 0-4) in one minute of continuous activity. […]

[7] = In vitro NAC release from 6-Arm and 8-Arm PEG-S-S-NAC conjugates in PBS with GSH; type: physicochemical; conditions: intracellular GSH concentration (2 and 10 mM), within 2 hours
Procedure: The in vitro release of NAC from the 6-Arm-PEG-S—S-NAC and 8-Arm-PEG-S—S-NAC conjugates was performed in PBS (pH=7.4) at 37° C. Appropriate amounts of PEG-S—S-NAC conjugate were dissolved in release media (PBS buffered) to form a solution of 1 mg/ml into eppendorf tube and GSH was added to the conjugates to form 10 mM, 2 mM, or 2 μM concentrations and to initiate the release of NAC. All samples were run as triplicates for statistical analysis. As control samples, conjugates were analyzed in PBS buffered media in the absence of reducing agents. The solutions were kept at 37° C. and stirred continuously. At predetermined time intervals, 30 μL of samples were withdrawn and immediately analyzed release of NAC and GS-NAC with RP-HPLC and the concentrations of analytes were determined by using appropriate calibrations prepared under same conditions.

BV-2 cells = assay: TNF-α release assay (ELISA), PEG-NAC conjugates; type: cell-based, mouse; conditions: 5 mM
Procedure: (A) BV-2 cells (passage 22) were co-treated with 100 ng/mL of LPS and the indicated concentration of NAC, 6-Arm-PEG-S—S-NAC conjugate (1) and its correspond 6-Arm-PEG-SH for 72 hours (B) BV-2 cells were co-treated with 100 ng/mL of LPS and the indicated concentration of NAC, 8-Arm-PEG-S—S-NAC conjugate (3) and its correspond PEG for 72 hours. Three samples were in each group. TNF-α in culture medium was measured using mouse TNF-α ELISA Kit.
The procedure for cell culture and drug treatment was the same as described in an earlier example. TNF-α secretion was measured using an ELISA Kit according to the manufacturer's instruction. In brief, 50 μL of supernatant from each sample was added in 96-well ELISA plates. Biotinylated antibody reagent was applied to each well and incubated the plate at room temperature for 2 hours. After washing the plate with PBS-Tween 20, diluted streptavidin-HRP was added, and the plate was incubated at room temperature for 30 min. After washing the plate, premixed TMB substrate solution was added. The plate was developed in the dark for 30 min, and read at 450 nm using a microplate reader. The concentration of TNF-α was calculated using murine rTNF-α as standard.

microglial cells = assay: Toxicity of PEG-NAC conjugates to microglial cells; type: cell-based; conditions: 0.008-0.8 mM
[8] = Inhibition of GSH depletion by PEG-NAC conjugates; type: cell-based; conditions: equimolar NAC 0.5 mM

Compound: G4-PAMAM-O-GABA-NH-FITC [D-FITC]
- Permeability coefficient, Chorioamnion ([1]; 0.6 mg/mL): 7.5×10^−8 cm^2/s
- Permeability coefficient, Chorioamnion ([1]; 3 mg/mL): 5.8×10^−8 cm^2/s
- transport across chorioamnion ([1]; in 5 hours): ≤ 3%
- Permeability coefficient, Amnion ([2]; 0.6 mg/mL): 1.86×10^−8 cm^2/s
- Permeability coefficient, Amnion ([2]; 3 mg/mL): 2.08×10^−7 cm^2/s
- transport across amnion ([2]; in 5 hours): ≤ 3%
- transport across amnion ([2]; in 20 hours, 0.6 mg/mL): 22%
- Permeability coefficient, Chorion ([3]; 0.6 mg/mL): 2.94×10^−8 cm^2/s
- Permeability coefficient, Chorion ([3]; 3 mg/mL): 2.94×10^−8 cm^2/s
- transport across chorion ([3]; in 5 hours): ≤ 3%
- transport across chorion ([3]; in 20 hours, 0.6 mg/mL, listed as G4-PAMAM dendrimer): 10% and ~10.5%
- stability of the conjugate [4]: FITC was not released from the conjugate
- size (DLS) [5]: 5.4 nm

Compound: CC(=O)N[C@@H](CCC(=O)N[C@@H](CS)C(=O)NCC(=O)O)C(=O)O [GS-S-NAC, N-Acetyl-glutathione] (Ac-[γGlu]-Cys-Gly-OH)
- Solubility in PBS/H2O (Solubility in PBS/H2O): Soluble

Compound: PAMAM-O-GABA-NH—CO-Ethyl-S—S-NAC [Dendrimer-NAC]
- suppression of NF-κB ([6]; 1 mg/kg single dose on PND-1, hippocampus PND 5): as effective as 100 mg/kg of NAC alone
- suppression of IL-6 relative to free drug ([6]; hippocampus): 10-100 times
- suppression of TNF-alpha mRNA expression relative to free drug ([6]; hippocampus, 5 days of age): 10-100 times
- effect on myelination compared to the drug alone ([6]; rabbit, in vivo): increased myelination
- efficacy relative to free NAC ([6]; single i.v. administration): ≤ 100 times

Compound: 8 Arm-PEG-S—S-NAC Conjugate [8-arm-PEG-S—S-NAC]
- NAC released [7]: 74%
- inhibition of TNF-α production (BV-2 cells): 70%
- toxicity to the microglial cells (microglial cells): nontoxic
- inhibition of GSH depletion versus free NAC [8]: more efficient

Compound: G4-PAMAM-O-GABA-NH-Alexa-488
- stability of the conjugate [4]: alexa was not released from the conjugate
- size (DLS) [5]: 5.6 nm

Compound: 6 Arm-PEG-S—S-NAC Conjugate [6-arm-PEG-S—S-NAC]
- NAC released [7]: 74%
- inhibition of TNF-α production (BV-2 cells): 70%
- toxicity to the microglial cells (microglial cells): nontoxic
- inhibition of GSH depletion versus free NAC [8]: more efficient
